The values that follow come from patent US20130344592A1 (University of Pennsylvania, published 2013).

Positions of bridges follow the written chain, without caps; N, C: chain ends. No end group written: not given here.

Experiment [1] has as its target T1, Human factor H (human, UniProt P08603 19-1231).
T1 construct: mature; Plasma-derived protein; also called fH
In words: monoclonal phage ELISA on coated factor H. On the procedure:
(§1) Microtiter wells were coated overnight with either factor H or BSA at 5 μg/mL in PBS at 4° C., and saturated with 5% non-fat milk in PBST for 1 h. Completely separated individual phage plaques from the third round of screening were picked and amplified. Phage particles of each amplified individual phage plaque were added to both factor H- and BSA-coated wells in parallel and allowed to bind at RT for 1 h. After six washes with PBST, bound phages were detected with HRP-conjugated anti-M13 monoclonal antibody (GE Healthcare), using ABTS (Roche) for color development. Clones that bound to factor H but not to BSA were considered positive; single-stranded DNA from positive clones was prepared using an M13 kit (Qiagen, Valencia, Calif.) and sequenced by the DNA sequencing facility of the University of Pennsylvania.

In experiment [2] the target is T2, factor H SCR 1-4 (fH1-4) (human, UniProt P08603 19-264).
T2 construct: domain: SCR 1-4; also called N-terminal fragment of factor H; regulatory fH1-4 fragment
T2 sequence (P08603 19-264 limits assumed): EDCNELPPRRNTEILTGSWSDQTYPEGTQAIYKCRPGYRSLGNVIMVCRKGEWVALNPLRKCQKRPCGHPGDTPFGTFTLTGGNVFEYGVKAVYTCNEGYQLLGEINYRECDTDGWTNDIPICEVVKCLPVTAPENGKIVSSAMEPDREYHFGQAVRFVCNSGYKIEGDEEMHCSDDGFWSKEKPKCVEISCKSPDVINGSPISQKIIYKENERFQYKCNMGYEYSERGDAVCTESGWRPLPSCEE
Put plainly: monoclonal phage ELISA on coated fragment. On the procedure: as §1
(§2) To localize the binding sites on factor H of the positive clones, we further tested each clone by monoclonal phage ELISA for binding to factor H and its N- and C-terminal fragments, i.e. fH1-4 and fH19-20.
On the technique in general: An ELISA detects its analyte on a solid surface through an enzyme-linked reagent.

For another experiment, the target named is T3, BSA (UniProt P02769 25-607).
T3 construct: Only printed as 'BSA'
T3 sequence (P02769 25-607 limits assumed): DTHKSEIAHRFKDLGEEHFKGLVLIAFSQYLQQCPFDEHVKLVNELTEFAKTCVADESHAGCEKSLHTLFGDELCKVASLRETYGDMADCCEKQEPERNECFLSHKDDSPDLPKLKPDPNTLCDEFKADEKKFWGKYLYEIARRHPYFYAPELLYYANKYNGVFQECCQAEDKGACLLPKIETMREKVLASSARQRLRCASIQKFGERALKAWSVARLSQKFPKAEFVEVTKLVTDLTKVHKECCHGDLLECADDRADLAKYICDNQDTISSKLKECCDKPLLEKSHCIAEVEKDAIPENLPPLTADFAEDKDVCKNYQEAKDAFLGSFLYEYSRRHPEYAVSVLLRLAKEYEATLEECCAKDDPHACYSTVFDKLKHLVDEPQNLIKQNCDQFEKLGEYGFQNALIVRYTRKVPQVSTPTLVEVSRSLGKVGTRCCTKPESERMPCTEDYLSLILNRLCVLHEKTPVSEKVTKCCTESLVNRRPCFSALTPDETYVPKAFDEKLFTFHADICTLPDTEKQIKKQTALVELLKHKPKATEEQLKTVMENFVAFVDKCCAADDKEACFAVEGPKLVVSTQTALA
Put plainly: monoclonal phage ELISA, BSA coated at 5 µg/mL. On the procedure:
as §1

The target of experiment [3] is T2, factor H SCR 1-4 (fH1-4). In words: SPR, biotinylated peptide captured on streptavidin chip, fragment injected. As to the method:
The binding of factor H with surface-bound 5C6 peptide was further characterized using surface plasmon resonance (SPR) on a ProteOn XPR36 instrument (Bio-Rad Inc., Hercules, Calif.) using PBST (10 mM sodium phosphate, 150 mM NaCl, 0.005% Tween 20) as running buffer. Streptavidin (50 μg/ml in 10 mM sodium acetate pH 5.0) was immobilized on a GLC sensor chip at 30° C. using amine coupling. The biotinylated 5C6 peptide and a biotinylated control peptide (linear compstatin; see above) were captured on separate streptavidin-coated channels to a density of ˜200 resonance units (RU). Purified factor H (Complement Technologies, Tyler, Tex.) or recombinant fragments fH1-4 and fH19-20 were injected at a concentration of 100 nM for 2 rain at a flow rate of 25 μl/min with a dissociation phase of 6 min. A single injection of 2 M NaCl for 30 s was used to regenerate the surface between injections. […]
The binding activity and specificity was further validated using SPR assays, by simultaneously injecting factor H or its fragments over biotinylated 5C6 peptide and the control peptide, which were captured on a streptavidin-coated sensor chip. […] While a significant SPR response could also be detected for the fH19-20 fragment, this interaction was not stable and the signal rapidly returned to baseline. […]
(Surface plasmon resonance follows binding to a sensor surface in real time, without labels.)

Experiment [4] addresses T1, Human factor H. In words: ELISA, biotinylated peptide on coated streptavidin, purified factor H detected by polyclonal antibody. As to the method:
(§3) Two approaches were used to evaluate the binding of synthetic peptides to factor H. First, we used peptide-phage competition assays, in which serially diluted synthetic peptide was added to its parent phage at the step of phage binding to coated factor H. The rest of the steps were performed as described above for monoclonal phage ELISA. Second, ELISA experiments were used to evaluate the binding of factor H to the immobilized peptide. Microtiter plates were coated with streptavidin (New England Biolabs) at 10 μg/ml in PBS at 4° C. overnight, and saturated with 2% BSA in PBS. After washing, either the biotinylated 5C6 peptide or a biotinylated control peptide (linear compstatin; […]) was added at 10 μg/ml and allowed to bind at RT for 30 min. […] After 1 h of binding, the plates were washed, and bound factor H was detected with goat anti-human factor H polyclonal antibody (Quidel, San Diego, Calif.), followed by HRP-conjugated rabbit anti-goat IgG (Bio-Rad). […]
(§4) The direct binding between the peptide and factor H was initially evaluated in an ELISA experiment, in which the biotinylated 5C6 peptide and a biotinylated control peptide of similar size and charge (i.e., linear compstatin) were captured by coated streptavidin and the binding of purified factor H was detected by polyclonal antibodies.

Experiment [5] has as its target T1, Human factor H. In words: ELISA, biotinylated peptide on coated streptavidin, factor H detected by polyclonal antibody. On the procedure:
as §3, §4

In experiment [6] the target is T4, fH19-20 (human, UniProt P08603 1107-1231).
T4 construct: domain: SCR19-20; also called factor H SCR19-20; C-terminal two SCR of factor H
T4 sequence (looked up): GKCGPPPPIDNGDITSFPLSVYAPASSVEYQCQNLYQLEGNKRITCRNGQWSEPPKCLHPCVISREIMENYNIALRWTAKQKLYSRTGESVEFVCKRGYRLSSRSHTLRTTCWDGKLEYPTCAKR
Put plainly: monoclonal phage ELISA. As to the method:
as §1, §2

Experiment [7] concerns the target T2, factor H SCR 1-4 (fH1-4). In words: monoclonal phage ELISA. On the procedure:
as §1, §2

Experiment [8] concerns the target T4, fH19-20. In words: monoclonal phage ELISA on coated fragment. As to the method: as §1, §2
The target in experiment [9] is T1, Human factor H. In words: peptide-phage competition ELISA on coated factor H. On the procedure: Two approaches were used to evaluate the binding of synthetic peptides to factor H. First, we used peptide-phage competition assays, in which serially diluted synthetic peptide was added to its parent phage at the step of phage binding to coated factor H. The rest of the steps were performed as described above for monoclonal phage ELISA. Second, ELISA experiments were used to evaluate the binding of factor H to the immobilized peptide. Microtiter plates were coated with streptavidin (New England Biolabs) at 10 μg/ml in PBS at 4° C. overnight, and saturated with 2% BSA in PBS. After washing, either the biotinylated 5C6 peptide or a biotinylated control peptide (linear compstatin; […]) was added at 10 μg/ml and allowed to bind at RT for 30 min. The wells were washed again, and factor H serially diluted in PBS, starting with 2.5 μg/ml, was added. After 1 h of binding, the plates were washed, and bound factor H was detected with goat anti-human factor H polyclonal antibody (Quidel, San Diego, Calif.), followed by HRP-conjugated rabbit anti-goat IgG (Bio-Rad). […]

B1: Phage clone 5-2C6 (class 2, library ANL5) (peptide)
peptide: ASSYDVGYSHDCRF
notes: not shown: not specified for the library
For B1, the results for the binding result with Human factor H [1], with factor H SCR 1-4 (fH1-4) [2] and with BSA were “binds”, “binds” and “no binding”, respectively.

B2: Biotinylated 5C6 peptide (peptide)
peptide: ASSSRCTYDHWCSH-{K(biotin)-NH2}
modifications: disulfide 6-12
notes: Captured on coated streptavidin (polystyrene wells or SPR chips); also called immobilized 5C6 peptide; not shown: C-terminal lysine carrying biotin
Turning to B2, the binding result in the experiment with factor H SCR 1-4 (fH1-4) [3] was “no binding (tested: 100 nM)”; with Human factor H [4], “binds”.

B3: Biotinylated control peptide (linear compstatin, Cys-to-Ala double mutant) (peptide)
peptide: IAVVQDWGHHRAT
modifications: also: biotinylated, site not given here
notes: captured on coated streptavidin; also called LC; negative control peptide
Regarding B3, in the experiment with Human factor H [5], the binding result is given as “no binding”.

B4: Phage clone 5G11 (class 3, library ANL5) (peptide)
peptide: ASSNVCSYSYWCAH
notes: as for B1
Take B4: the binding result is given as “binds” with Human factor H [1], “no binding” with fH19-20 [6], “no binding” in the experiment with factor H SCR 1-4 (fH1-4) [7] and “no binding” with BSA.

B5: Phage clone 5E10 (class 3, library ANL5) (peptide)
peptide: ASSFKCDYSHWCLH
notes: as for B1
As for B5, the binding result with Human factor H [1] is on record as “binds”; with fH19-20 [6] it was “no binding”; with factor H SCR 1-4 (fH1-4) [7] it was “no binding”; with BSA, “no binding”.

B6: Phage clone 5D1 (class 3, library ANL5) (peptide)
peptide: ASPSWCSYSHWCRH
notes: as for B1
Regarding B6, the binding result is on record as “binds” with Human factor H [1], “no binding” with fH19-20 [6], “no binding” with factor H SCR 1-4 (fH1-4) [7] and “no binding” with BSA.

B7: Phage clone 5C6 (class 3, library ANL5) (peptide)
peptide: ASSSRCTYDHWCSH
notes: also called parent phage of the 5C6 peptide; not shown: not specified for the library
Regarding B7, the binding result with Human factor H [1] is recorded as “binds”; with factor H SCR 1-4 (fH1-4) [7], “no binding”; in the experiment with BSA, “no binding”.

B8: Phage clone 4A1 (class 1, library ANL4) (peptide)
peptide: ASSGMCFTKKTVLC
notes: as for B1
B8: the binding result with Human factor H [1] was “binds”; in the experiment with fH19-20 [8], “binds”; in the experiment with BSA it was “no binding”.

B9: Phage clone 5-2B2 (class 3, library ANL5) (peptide)
peptide: ASSCMYSYWCTH
notes: as for B1
B9: the binding result with Human factor H [1] was “binds”; with fH19-20 [6] it was “no binding”; with factor H SCR 1-4 (fH1-4) [7], “no binding”; with BSA, “no binding”.

B10: Synthetic 5C6 peptide (peptide)
peptide: ASSSRCTYDHWCSH-NH2
modifications: disulfide 6-12; N-terminus assumed
SMILES: C[C@H](N)C(=O)N[C@@H](CO)C(=O)N[C@@H](CO)C(=O)N[C@@H](CO)C(=O)N[C@@H](CCCNC(=N)N)C(=O)N[C@H]1CSSC[C@@H](C(=O)N[C@@H](CO)C(=O)N[C@@H](Cc2c[nH]cn2)C(N)=O)NC(=O)[C@H](Cc2c[nH]c3ccccc23)NC(=O)[C@H](Cc2c[nH]cn2)NC(=O)[C@H](CC(=O)O)NC(=O)[C@H](Cc2ccc(O)cc2)NC(=O)[C@H]([C@@H](C)O)NC1=O
notes: also called peptide 5C6
Regarding B10, the binding result with Human factor H [9] was “binds”.
